Measured values published in article PMC12767347 (bioRxiv, 2025).
Several values for one entry are separate records, joined by “and”; a condition that tells them apart may be missing. Equal values may be shown once. Read-outs that look alike come from different tables or passages of the source.

What was measured:
SEC = biological target: the molecule itself; test: SEC
[1] = biological target: T1, untagged PNPase (catalytically active) (M. smegmatis, UniProt A0QVQ5 1-763); test: co-IP
T1 sequence: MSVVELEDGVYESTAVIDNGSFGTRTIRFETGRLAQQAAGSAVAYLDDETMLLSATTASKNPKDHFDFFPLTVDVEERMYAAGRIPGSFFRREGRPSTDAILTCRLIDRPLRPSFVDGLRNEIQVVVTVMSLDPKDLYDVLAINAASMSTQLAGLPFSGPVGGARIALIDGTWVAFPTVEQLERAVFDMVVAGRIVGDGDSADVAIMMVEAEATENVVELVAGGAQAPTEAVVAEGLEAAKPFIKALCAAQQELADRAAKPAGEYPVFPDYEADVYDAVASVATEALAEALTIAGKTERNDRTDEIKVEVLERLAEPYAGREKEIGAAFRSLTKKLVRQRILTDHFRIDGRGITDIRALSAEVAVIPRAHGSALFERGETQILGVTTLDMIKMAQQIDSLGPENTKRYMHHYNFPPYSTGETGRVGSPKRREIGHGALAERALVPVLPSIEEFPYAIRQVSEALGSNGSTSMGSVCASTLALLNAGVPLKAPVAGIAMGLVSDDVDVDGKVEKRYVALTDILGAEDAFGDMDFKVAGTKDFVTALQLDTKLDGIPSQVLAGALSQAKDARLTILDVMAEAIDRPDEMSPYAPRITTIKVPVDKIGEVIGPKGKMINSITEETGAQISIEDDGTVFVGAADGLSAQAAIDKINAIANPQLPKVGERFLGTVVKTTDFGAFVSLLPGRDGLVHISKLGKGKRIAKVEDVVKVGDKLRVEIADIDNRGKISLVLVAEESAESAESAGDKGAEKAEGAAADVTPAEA

[2] = biological target: T2, HA-tagged PNPase (catalytically active) (M. smegmatis, UniProt A0QVQ5 1-763); test: co-IP
T2 sequence: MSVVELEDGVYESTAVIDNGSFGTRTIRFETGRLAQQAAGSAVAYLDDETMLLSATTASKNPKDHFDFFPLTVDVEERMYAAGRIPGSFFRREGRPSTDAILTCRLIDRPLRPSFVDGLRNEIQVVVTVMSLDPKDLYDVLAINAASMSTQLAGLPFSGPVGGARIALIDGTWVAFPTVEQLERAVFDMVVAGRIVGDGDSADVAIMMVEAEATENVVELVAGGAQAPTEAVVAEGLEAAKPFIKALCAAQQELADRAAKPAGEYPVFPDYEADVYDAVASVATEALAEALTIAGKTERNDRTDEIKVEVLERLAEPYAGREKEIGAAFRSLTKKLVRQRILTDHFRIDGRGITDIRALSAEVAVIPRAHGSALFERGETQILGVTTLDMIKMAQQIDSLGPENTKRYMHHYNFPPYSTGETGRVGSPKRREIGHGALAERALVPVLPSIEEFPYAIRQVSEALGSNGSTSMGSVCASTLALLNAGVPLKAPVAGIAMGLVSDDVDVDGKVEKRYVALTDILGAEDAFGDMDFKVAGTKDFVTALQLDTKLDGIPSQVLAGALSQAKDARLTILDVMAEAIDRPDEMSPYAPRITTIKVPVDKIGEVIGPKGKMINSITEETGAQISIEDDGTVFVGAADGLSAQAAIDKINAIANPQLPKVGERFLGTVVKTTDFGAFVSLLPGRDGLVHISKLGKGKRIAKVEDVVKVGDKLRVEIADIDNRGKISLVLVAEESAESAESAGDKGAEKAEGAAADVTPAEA

[3] = biological target: T2, HA-tagged PNPase (catalytically active); test: co-IP; remark: listed apart in the source

Binder | stoichiometry N (SEC) | also measured
catalytically dead RNase E C-terminal IDR deletion (retaining AA 2-823), N-terminal 6x-His and FLAG tagged (domain or fragment) AEDAHTEDLSTQTPQQEGLPERLRVHSLARVLGTTSRRVLDALAEFDGRQRSAHSTVDKADAERVRAALTESPAAETPPEEAPAAETPVADLVVVQAEQVEVVTVSEAGPAEPAEPAEPEAPAAEAEAEAETEVADEAETPEPTFRGAVLVGDEPESRLILEHANIPPARETQTERPDYLPLFVAPQPVSFEPAVVDDEDEDDDTETGAESDFDSGADSDSDDDQADRPRRRRRGRRGRGRGRGEQNDDATSDADTDSTEDQTDGDEQESGEDSDDSGDEDSTTTEGGTRRRRRRRRRKSGSGDSDDAVSPDDPPNTVVHERAPRTERSDKSDDSEIQGISGSTRLEAKRQRRRDGRDAGRRRPPILSEAEFLARREAVERTMIVRDKVRTEPPHEGARYTQIAVLEDGVVVEHFVTSAASASLVGNIYLGIVQNVLPSMEAAFVDIGRGRNGVLYAGEVNWEAAGLGGQNRKIEQALKPGDYVVVQVSKDPVGHKGARLTTQVSLAGRYLVYVPGASSTGISRKLPDTERQRLKEILREVVPSDAGVIIRTASEGVKEEDIRSDVERLQKRWSEIEAKAAEVTEKKAGAAVALYEEPDVLVKVIRDLFNEDFSSLIVSGDEAWNTINSYVEAVAPDLMPRLTKYEPAGPDAPDVFAVHRIDEQLAKAMDRKVWLPSGGTLVIDRTEAMTVVRVNTGKFTGSGGNLEQTVTRNNLEAAEEIVRQLRLRDIGGIVVIRFIDMVLESNRDLVLRRLTEALARDRTRHQVSEVTSLGLVQLTRKRLGTGLVEAFSTACTHCGGRGIVLHGDPIDSASSNGGRKSD | 2 and 4 | 
HA-tagged RNase J (catalytically active) (enzyme) MSAELAPPPPLAPGGLRVTALGGISEIGRNMTVFEHLGRLLIVDCGVLFPGHDEPGVDLILPDLRHIEDRLDEIEALVVTHAHEDHIGAIPFLLKLRPDIPVVGSKFTIALVREKCREHRLKPKFVEVAERQSSQHGVFECEYFAVNHSIPGCLAVAIHTGAGTVLHTGDIKLDQLPLDGRPTDLPGMSRLGDAGVDLFLCDSTNSEHPGVSPSESEVGPTLHRLIRGAEGRVIVACFASNVDRVQQIIDAAVALGRRVSFVGRSMVRNMGIARELGYLKVDDSDILDIAAAEMMPPDRVVLITTGTQGEPMAALSRMSRGEHRSITLTSGDLIILSSSLIPGNEEAVYGVIDSLSKIGARVVTNAQARVHVSGHAYAGELLFLYNGVRPRNVMPVHGTWRHLRANAALAASTGVPPENIVLAENGVSVDLVAGRASISGAVTVGKMFVDGLITGDVGDATLGERLILSSGFVSITVVVHRGTGRPAGPAHLISRGFSEDPKALEPVAQKVERELEALAADNVTDPTRIAQAVRRTVGKWVGETYRRQPMIVPTVIEI |  | binding result [1]: binds
untagged RNase J (catalytically active) (enzyme) MSAELAPPPPLAPGGLRVTALGGISEIGRNMTVFEHLGRLLIVDCGVLFPGHDEPGVDLILPDLRHIEDRLDEIEALVVTHAHEDHIGAIPFLLKLRPDIPVVGSKFTIALVREKCREHRLKPKFVEVAERQSSQHGVFECEYFAVNHSIPGCLAVAIHTGAGTVLHTGDIKLDQLPLDGRPTDLPGMSRLGDAGVDLFLCDSTNSEHPGVSPSESEVGPTLHRLIRGAEGRVIVACFASNVDRVQQIIDAAVALGRRVSFVGRSMVRNMGIARELGYLKVDDSDILDIAAAEMMPPDRVVLITTGTQGEPMAALSRMSRGEHRSITLTSGDLIILSSSLIPGNEEAVYGVIDSLSKIGARVVTNAQARVHVSGHAYAGELLFLYNGVRPRNVMPVHGTWRHLRANAALAASTGVPPENIVLAENGVSVDLVAGRASISGAVTVGKMFVDGLITGDVGDATLGERLILSSGFVSITVVVHRGTGRPAGPAHLISRGFSEDPKALEPVAQKVERELEALAADNVTDPTRIAQAVRRTVGKWVGETYRRQPMIVPTVIEI |  | binding result [2]: binds
catalytically dead full-length RNase E (D694R, D738R), N-terminal 6x-His and FLAG tagged (enzyme) MAEDAHTEDLSTQTPQQEGLPERLRVHSLARVLGTTSRRVLDALAEFDGRQRSAHSTVDKADAERVRAALTESPAAETPPEEAPAAETPVADLVVVQAEQVEVVTVSEAGPAEPAEPAEPEAPAAEAEAEAETEVADEAETPEPTFRGAVLVGDEPESRLILEHANIPPARETQTERPDYLPLFVAPQPVSFEPAVVDDEDEDDDTETGAESDFDSGADSDSDDDQADRPRRRRRGRRGRGRGRGEQNDDATSDADTDSTEDQTDGDEQESGEDSDDSGDEDSTTTEGGTRRRRRRRRRKSGSGDSDDAVSPDDPPNTVVHERAPRTERSDKSDDSEIQGISGSTRLEAKRQRRRDGRDAGRRRPPILSEAEFLARREAVERTMIVRDKVRTEPPHEGARYTQIAVLEDGVVVEHFVTSAASASLVGNIYLGIVQNVLPSMEAAFVDIGRGRNGVLYAGEVNWEAAGLGGQNRKIEQALKPGDYVVVQVSKDPVGHKGARLTTQVSLAGRYLVYVPGASSTGISRKLPDTERQRLKEILREVVPSDAGVIIRTASEGVKEEDIRSDVERLQKRWSEIEAKAAEVTEKKAGAAVALYEEPDVLVKVIRDLFNEDFSSLIVSGDEAWNTINSYVEAVAPDLMPRLTKYEPAGPDAPDVFAVHRIDEQLAKAMDRKVWLPSGGTLVIDRTEAMTVVRVNTGKFTGSGGNLEQTVTRNNLEAAEEIVRQLRLRDIGGIVVIRFIDMVLESNRDLVLRRLTEALARDRTRHQVSEVTSLGLVQLTRKRLGTGLVEAFSTACTHCGGRGIVLHGDPIDSASSNGGRKSDSSGGGGSGGGRRGKRGKKGAARTEEVHVAKVPDHTPGEHPMFKAMAAANGKHEGDEDHEDHEDHETAEDTTAAEVRDDTRDEHDADERAHVVTAAVGAAGDEDLDDSDEDSDLDSDEESDDESDEDEIELDDDEDELDEDIEVIGDSDDSDDSDDSDEDDDSDDSDDDSDEDEDSDSDEDEEPVREVYEPPVTAPRARVRRRAAARPAGPPSHD | 4 | 
catalytically dead RNase E N-terminal IDR deletion (retaining AA 330-1037), N-terminal 6x-His and FLAG tagged (domain or fragment) SDKSDDSEIQGISGSTRLEAKRQRRRDGRDAGRRRPPILSEAEFLARREAVERTMIVRDKVRTEPPHEGARYTQIAVLEDGVVVEHFVTSAASASLVGNIYLGIVQNVLPSMEAAFVDIGRGRNGVLYAGEVNWEAAGLGGQNRKIEQALKPGDYVVVQVSKDPVGHKGARLTTQVSLAGRYLVYVPGASSTGISRKLPDTERQRLKEILREVVPSDAGVIIRTASEGVKEEDIRSDVERLQKRWSEIEAKAAEVTEKKAGAAVALYEEPDVLVKVIRDLFNEDFSSLIVSGDEAWNTINSYVEAVAPDLMPRLTKYEPAGPDAPDVFAVHRIDEQLAKAMDRKVWLPSGGTLVIDRTEAMTVVRVNTGKFTGSGGNLEQTVTRNNLEAAEEIVRQLRLRDIGGIVVIRFIDMVLESNRDLVLRRLTEALARDRTRHQVSEVTSLGLVQLTRKRLGTGLVEAFSTACTHCGGRGIVLHGDPIDSASSNGGRKSDSSGGGGSGGGRRGKRGKKGAARTEEVHVAKVPDHTPGEHPMFKAMAAANGKHEGDEDHEDHEDHETAEDTTAAEVRDDTRDEHDADERAHVVTAAVGAAGDEDLDDSDEDSDLDSDEESDDESDEDEIELDDDEDELDEDIEVIGDSDDSDDSDDSDEDDDSDDSDDDSDEDEDSDSDEDEEPVREVYEPPVTAPRARVRRRAAARPAGPPSHD | 2 and 4 | binding result [3]: binds
